Measurements as given in patent US20070098715A1.

Target: Ten-M2 endogenously expressed on human cancer cell lines (SNB-19 and others) (human) (UniProt Q9NT68)
Assay: flow cytometry on SNB-19 cells at 4° C., Alexa647 anti-human IgG secondary

isotype control Ab (antibody)
Total Bound Fluorescence: 2.2
